Measured values reported in patent US9943596B2, “Combination therapy using dual inhibitor of c-MET and EGFR and IGF-1R inhibitor” (Samsung Electronics Co., Ltd., priority 2014, dated 2018).

What was measured:
c-Met = c-Met (Homo sapiens, UniProt P08581); assay: specificity of expressed scFv of huAbF46; type: binding; conditions: after expression
Description: For use in constructing an scFv of the huAbF46 antibody from the heavy and light chain variable regions of the huAbF46 antibody, a gene was designed to have the structure of “VH-linker-VL” for each of the heavy and the light chain variable region, with the linker including the amino acid sequence “[…]” (SEQ ID NO: 54). A polynucleotide sequence (SEQ ID NO: 55) encoding the designed scFv of huAbF46 was synthesized in Bioneer and an expression vector for the polynucleotide had the nucleotide sequence of SEQ ID NO: 56.

[1] = tested on: L3-1Y/IgG2 resistant MKN45re#1 and MKN45re#24 cell lines; assay: cell proliferation assay (CellTiter Glo), anti-c-Met antibody resistant MKN45; type: cell-based
Protocol: To obtain anti-c-Met antibody resistant MKN45 gastric cancer cells, MKN45 gastric cancer cells were administered with L3-1Y/IgG2 for at least 3 months by increasing the administration concentration. The amount of L3-1Y/IgG2 administered was increased from 1 μg/ml to 10 μg/ml, until resistance to L3-1Y/IgG2 is induced. The obtained L3-1Y/IgG2 resistant clones were named as MKN45re#1 and MKN45re#24, respectively.
72 hours after the co-treatment, the number of living cells was counted by CellTiter Glo assay (Promega, G7573). […] For comparison, the same experiment was preformed except that cells were treated with ME22S alone at the 1/5 diluted concentration starting from 10 nM.

[2] = tested on: gastric cancer cell line SNU5; assay: cell proliferation assay (CellTiter Glo), SNU5; type: cell-based; conditions: ME22S 1/5 dilutions from 60 nM, alone or with linsitinib 10 μM, 72 hours, FIG. 2
Protocol: (§1) 72 hours after the treatment with the antibody and/or the inhibitor drug, the number of living cells was counted using a CellTiter Glo assay (Promega, G7573). This assay measures the amount of ATP which reflects metabolism of living cells, thereby counting the number of living cells.
(§2) 72 hours after the co-treatment, the cell number was measured by CellTiter Glo assay (Promega, G7573).

[3] = tested on: gastric cancer cell line MKN45; assay: cell proliferation assay (CellTiter Glo), MKN45; type: cell-based; conditions: ME22S 1/5 dilutions from 10 nM and/or linsitinib 10 μM, 72 hours, FIGS. 4A, 4B
Protocol: as §1
(§3) 72 hours after the co-treatment, the number of living cells was counted by CellTiter Glo assay (Promega, G7573).

[4] = tested on: gastric cancer cell line SNU668; assay: cell proliferation assay (CellTiter Glo), SNU668; type: cell-based; conditions: ME22S 1/5 dilutions from 60 nM, alone or with linsitinib 10 μM, 72 hours, FIG. 2
Protocol: as §1, §2

[5] = tested on: lung cancer cell line HCC827; assay: cell proliferation assay (CellTiter Glo), HCC827; type: cell-based; conditions: ME22S 1/5 dilutions from 150 nM and/or linsitinib 10 μM, 72 hours, FIGS. 3A, 3B
Protocol: as §1, §3

c-Met, sequence (P08581 25-1390): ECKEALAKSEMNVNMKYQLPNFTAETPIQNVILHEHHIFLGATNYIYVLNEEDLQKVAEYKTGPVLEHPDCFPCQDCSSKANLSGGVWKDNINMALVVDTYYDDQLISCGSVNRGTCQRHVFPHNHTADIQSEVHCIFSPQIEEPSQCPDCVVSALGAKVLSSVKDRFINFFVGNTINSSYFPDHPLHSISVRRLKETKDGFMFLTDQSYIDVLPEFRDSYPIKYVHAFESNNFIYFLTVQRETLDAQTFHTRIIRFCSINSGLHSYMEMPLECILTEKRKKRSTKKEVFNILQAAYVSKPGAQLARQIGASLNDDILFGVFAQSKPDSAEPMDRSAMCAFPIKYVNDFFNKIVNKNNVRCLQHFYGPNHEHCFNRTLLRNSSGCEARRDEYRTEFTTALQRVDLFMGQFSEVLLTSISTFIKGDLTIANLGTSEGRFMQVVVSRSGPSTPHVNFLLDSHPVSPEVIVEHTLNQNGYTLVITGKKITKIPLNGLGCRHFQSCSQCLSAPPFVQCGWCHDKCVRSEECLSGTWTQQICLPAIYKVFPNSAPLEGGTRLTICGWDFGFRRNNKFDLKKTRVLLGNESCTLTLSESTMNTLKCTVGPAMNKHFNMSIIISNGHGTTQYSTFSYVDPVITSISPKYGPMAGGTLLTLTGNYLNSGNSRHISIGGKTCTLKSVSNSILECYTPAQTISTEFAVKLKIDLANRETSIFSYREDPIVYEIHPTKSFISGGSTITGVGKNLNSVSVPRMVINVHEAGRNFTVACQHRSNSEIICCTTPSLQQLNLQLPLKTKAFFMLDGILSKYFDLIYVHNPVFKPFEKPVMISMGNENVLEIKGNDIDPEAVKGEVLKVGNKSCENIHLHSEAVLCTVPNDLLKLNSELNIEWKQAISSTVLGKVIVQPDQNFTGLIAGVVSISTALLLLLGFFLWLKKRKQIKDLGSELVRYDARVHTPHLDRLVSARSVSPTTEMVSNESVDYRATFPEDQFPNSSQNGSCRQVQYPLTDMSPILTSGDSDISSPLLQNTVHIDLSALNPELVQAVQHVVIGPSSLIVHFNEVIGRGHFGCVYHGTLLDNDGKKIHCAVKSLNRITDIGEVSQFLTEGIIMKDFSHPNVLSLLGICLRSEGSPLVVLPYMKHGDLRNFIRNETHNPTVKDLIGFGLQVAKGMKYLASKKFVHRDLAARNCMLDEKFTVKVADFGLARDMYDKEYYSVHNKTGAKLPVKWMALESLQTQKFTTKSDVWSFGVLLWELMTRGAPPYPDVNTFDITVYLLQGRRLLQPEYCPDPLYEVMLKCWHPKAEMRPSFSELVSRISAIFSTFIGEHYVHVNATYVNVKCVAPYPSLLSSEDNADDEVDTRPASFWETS

| Molecule | specificity to c-Met (c-Met) | cancer cell proliferation inhibition effect ([1]; MKN45re#1 (linsitinib 10 μM) or MKN45re#24 (linsitinib 2.5 μM), ME22S 1/5 dilutions from 10 nM, 72 hours, FIG. 5) | resistance of the cell line to the antibody ([1]; anti-c-Met antibody (L3-1Y/IgG2) resistant MKN45 gastric cancer cell line) | cell proliferation inhibition effect [2] | cancer cell proliferation inhibition [3] | cell proliferation inhibition effect [4] | cancer cell proliferation inhibition effect [5] |
| --- | --- | --- | --- | --- | --- | --- | --- |
| scFv of huAbF46: scFv of structure VH-linker-VL from the heavy and light chain variable regions of huAbF46 (protein) scFv: EVQLVESGGGLVQPGGSLRLSCAASGFTFTDYYMSWVRQAPGKGLEWLGFIRNKANGYTTEYSASVKGRFTISRDNSKNTLYLQMNSLRAEDTAVYYCARDNWFAYWGQGTLVTVSSGLGGLGGGGSGGGGSGGSSGVGSDIQMTQSPSSLSASVGDRVTITCKSSQSLLASGNQNNYLAWHQQKPGKAPKMLIIWASTRVSGVPSRFSGSGSGTDFTLTISSLQPEDFATYYCQQSYSAPLTFGQGTKVEIKR | exhibit specificity to c-Met |  |  |  |  |  |  |
| ME22S: anti-c-Met/anti-EGFR bispecific antibody in which the modified anti-EGFR scFv is fused at the c-terminal of L3-1Y-IgG2 (antibody) heavy: EVQLVESGGGLVQPGGSLRLSCAASGFTFTDYYMSWVRQAPGKGLEWLGFIRNKANGYTTEYSASVKGRFTISRDNSKNTLYLQMNSLRAEDTAVYYCARDNWFAYWGQGTLVTVSSASTKGPSVFPLAPCSRSTSESTAALGCLVKDYFPEPVTVSWNSGALTSGVHTFPAVLQSSGLYSLSSVVTVPSSNFGTQTYTCNVDHKPSNTKVDKTVERKCCVECPPCPAPPVAGPSVFLFPPKPKDTLMISRTPEVTCVVVDVSHEDPEVQFNWYVDGVEVHNAKTKPREEQFNSTFRVVSVLTVVHQDWLNGKEYKCKVSNKGLPAPIEKTISKTKGQPREPQVYTLPPSREEMTKNQVSLTCLVKGFYPSDIAVEWESNGQPENNYKTTPPMLDSDGSFFLYSKLTVDKSRWQQGNVFSCSVMHEALHNHYTQKSLSLSPGKGGGGSGGGGSEVQLLESGGGLVQPGGSLRLSCAASGFTFSNYDMSWVRQAPGKCLEWVSGISHSSGSKYYADSVKGRFTISRDNSKNTLYLQMNSLRAEDTAVYYCAKDATPRPLKPFDYWGQGTLVTVSSGGGGSGGGGSGGGGSQSVLTQPPSASGTPGQRVTISCTGSSSNIGNNDVSWYQQLPGTAPKLLIYDDNKRPSGVPDRFSGSKSGTSASLAISGLRSEDEADYYCGSWDASLNAYVFGCGTKLTVLG light: DIQMTQSPSSLSASVGDRVTITCKSSQSLLASGNQNNYLAWYQQKPGKAPKMLIIWASTRVSGVPSRFSGSGSGTDFTLTISSLQPEDFATYYCQQSYSRPYTFGQGTKVEIKRTVAAPSVFIFPPSDEQLKSGTASVVCLLNNFYPREAKVQWKVDNALQSGNSQESVTEQDSKDSTYSLSSTLTLSKADYEKHKVYACEVTHQGLSSPVTKSFNRGEC |  | no cancer cell proliferation inhibition effect | resistant | has a cell proliferation inhibition effect | can inhibit proliferation | does not exhibit a cell proliferation inhibition effect | not observed |
